“Also recorded” adds a separate entry of the source. Read-outs that look alike come from different tables or passages of the source. Where a SMILES comes first, the peptide text is derived from it. [ ]: non-standard residue; d: D form. The star is where a group is joined. DOTA = O=C(O)CN1CCN(CC(=O)O)CCN(CC(=O)*)CCN(CC(=O)O)CC1; Butanoyl(4-(4-MePh)) = Cc1ccc(CCCC(=O)*)cc1; Nle = CCCC[C@H](N)C(=O)O; Ahx = NCCCCCC(=O)O
Tests used:
[1] = test system: pancreatic tumor PDX models; parameters: method as in PMID 34593598; details: cited from earlier work
A431-CCK2R (+) tumors = experiment: Therapeutic responses to Lu-177-labeled CCK2R analogs in CCK2R-expressing cancer-bearing mice; type: in vivo; details: 200 μCi intravenously
Protocol: (§1) To generate A431-CCK2R (+) and A431-CCK2R (−) tumor-bearing mice models, mice (3 per group) were inoculated subcutaneously with 6 × 10^6 cells, which were injected into the inner right back leg for A431-CCK2R (+) tumors and the left back leg for A431-CCK2R (−) tumors, respectively. These xenografts were monitored until the tumor volume reached approximately 200–500 mm^3 [57]. The mice were then randomized to subgroups for further experiments. The formula for calculating tumor volume (V) is V = 4/3πr^3.
(§2) We investigated therapeutic responses in mice receiving [^177Lu]Lu-DOTA-PP-F11N, [^177Lu]Lu-DOTA-INER-PP-F11N-1, or [^177Lu]Lu-DOTA-INER-PP-F11N-2. A431-CCK2R (+) and A431-CCK2R (−) cells were implanted subcutaneously into the right and left inner hind legs of NOD/SCID mice. Once the tumors reached a volume of 200–500 mm^3, the mice were intravenously injected with either 200 μCi of [^177Lu]Lu-DOTA-PP-F11N, [^177Lu]Lu-DOTA-INER-PP-F11N-1, [^177Lu]Lu-DOTA-INER-PP-F11N-2, or PBS (as a non-radioactive control). The NanoSPECT/CT® plus scanner system (Mediso Medical Imaging Systems; Budapest, Hungary) was utilized to detect and image tumors in the mouse models. Tumor volumes were measured twice a week for 4 weeks.

[2] = test system: A431-CCK2R (−)/A431-CCK2R (+) tumor-bearing mice; experiment: NanoSPECT/CT imaging of tumor-bearing mice; type: in vivo; details: for radiotracer accumulation in the tumor region on NanoSPECT/CT: tail-vein injection, Lu-177-labeled
Protocol: as §1
The NanoSPECT/CT® plus scanner system (Mediso Medical Imaging Systems; Budapest, Hungary) was utilized to detect in vivo tumors in the in vivo animal models. Both A431-CCK2R (+) and A431-CCK2R (−) cancer cells were inoculated subcutaneously into the inner right leg and left back leg of the mice. Radiopharmaceuticals—[^111In]In-DOTA-PP-F11N, [^111In]In-DOTA-INER-PP-F11N-1, and [^111In]In-DOTA-INER-PP-F11N-2 (1 mCi)—were injected once the mean tumor volume reached approximately 200–500 mm^3. Inhalant (1–2% isoflurane) was used to anesthetize the mice during imaging acquisition. X-ray CT images and SPECT images were taken 4, 24, and 48 h after tail-vein injection. NanoSPECT imaging was acquired using nine multi-pinhole gamma detectors with high-resolution collimators. The energy window was set at 171 and 245 KeV ± 10%, the image size was set at 256 × 256, and the field of view was set at 60 mm × 100 mm.
For Lu-177, only 208 keV photons were used for imaging, with an energy window set at 208 keV ± 10%. Although Lu-177 also emits lower abundance photons at 113 keV, the 208 keV photon provides better image quality due to reduced scatter and higher energy resolution. Therefore, the gamma camera energy windows were specifically tailored to the photon emission profiles of each radionuclide to ensure optimal detection efficiency and image accuracy.
as §2

[3] = Metabolic stability analysis (radio-HPLC) in PBS at 4 °C or FBS at 37 °C; type: in vitro ADME
Protocol: DOTA-PP-F11N, DOTA-INER-PP-F11N-1, and DOTA-INER-PP-F11N-2 were labeled with In-111 and Lu-177 for further experiments. The detection of free In-111 after ITLC extension was defined as 0% radiolabeling efficiency. […]
To measure the labeling efficiency, ITLC was performed on glass microfiber chromatography paper impregnated with a silica gel (Agilent Technologies, Santa Clara, CA, USA) as described previously. Briefly, the ITLC sheets were developed with 10% methanol as solvent (Rf free Lu-177 = 0, Rf Lu-177-labeled compounds = 1) and measured using a radioactive scanner (AR-2000 radio-TLC […] Imaging Scanner, Bioscan, France). The sample was mixed with acetonitrile at a 1:1 (v/v) ratio, followed by centrifugation at 16,000× g for 5 min. The resulting supernatant was subsequently analyzed using HPLC with UV (220[…]) and radio detector with a Zorbax SB-C18 column (Agilent Technologies, Santa Clara, CA, USA). The flow rate was 0.8 mL/min, with the gradient mobile phase going from 90% A […] buffer (0.1% TFA in water) and 10% B buffer (0.1% TFA in acetonitrile) to 90% B buffer […] within 20 min.

[4] = Biodistribution study in tumor-bearing mice; type: in vivo; details: mouse, intravenous, total radioactivity, 72 h after tail-vein injection, tumor-bearing mice
Protocol: as §1
Mice were sacrificed via CO2 asphyxiation 72 h after intravenous injection of 50–100 μCi (50–100 μL) of radiolabeled DOTA-PP-F11N, DOTA-INER-PP-F11N-1, or DOTA-INER-PP-F11N-2 [58]. Tumors and organs of interest were collected for further pathological examinations. The PerkinElmer 2480 Automatic Gamma Counter (PerkinElmer, Waltham, MA, USA) was used to measure radioactivity; the data are presented as the percentage injected dose per gram of tissue (%ID/g).

[5] = Histopathological examinations (H&E) of mice after radiolabeled drug administration; type: in vivo; details: light microscopy
Source text: To investigate the pathological alterations in tumor-bearing mice receiving radiopharmaceuticals, […] tissues, including tumors, heart, liver, and kidneys, were collected. The specimens were first fixed using 10% buffered neutral formalin and then embedded in paraffin. Sections of 3–5 μm thickness were stained with H&E and examined using light microscopy (40 × and 20 ×).

A431-CCK2R (−) cells = experiment: In vitro binding and internalization assay, A431-CCK2R (−) cells; type: cell-based; details: 37 °C
Protocol: (§3) In vitro binding and internalization activities were measured using a gamma counter (WIZARD 1480, Perkin-Elmer). Briefly, A431-CCK2R (+) and A431-CCK2R (−) cells were seeded on 24-well plates (1 × 10^5 cells/well, Corning, NY, USA) for 12 h. The plated cells were treated with 30 ± 10 GBq/µmol of [^177Lu]Lu-DOTA-PP-F11N, [^177Lu]Lu-DOTA-INER-PP-F11N-1, or [^177Lu]Lu-DOTA-INER-PP-F11N-2 (1 mL/well) and then incubated at 37 °C for either 1 or 4 h. After incubation, the medium was collected, and the cells were then washed with ice-cold buffer. The medium and washed PBS were collected in tube 0. The washed cells were treated with glycine–HCl buffer (0.1 M, pH 3.0) and incubated for 10 min. After incubation, cells were washed again with glycine–HCl buffer. Both glycine-HCl buffer solutions were collected in tube 1. The washed cells were treated with 1 N NaOH (1 mL/well) and incubated for 10 min for cell lysis. After incubation, the cells were washed once with 1 N NaOH. The cell lysate solution was collected in tube 2. All tubes were analyzed using a gamma counter to detect radioactivity. Data were obtained from at least three independent experiments. The respective formulae for in vitro surface binding activity and internalization were as follows:Surface binding = tube 1/(tube 0 + tube 1 + tube 2) × 100%.Internalization = tube 2/(tube 0 + tube 1 + tube 2) × 100%.

A431-CCK2R (+) cells = experiment: In vitro binding and internalization assay, A431-CCK2R (+) cells; type: cell-based; parameters: surface binding activity / internalization activity: concentration or dose not given beside the values; details: for internalization activity / surface binding activity: A431-CCK2R (+) cells, 37 °C
Protocol: as §3

[6] = 4 °C PBS, 144 h after Lu-177 labeling
[7] = Lu-177-labeled, 37 °C FBS, 144 h
[8] = kidneys, read-out: radiotracer accumulation in the kidneys
[9] = tumor (A431-CCK2R (+)), read-out: tumor uptake of radiopharmaceuticals
[10] = labeled with Lu-177, each time point (Figure 2C, 4 °C PBS)

Cc1cc(-c2ccc(NC(=O)CCCC(=O)N[C@@H](CCCCNC(=O)CN3CCN(CC(=O)O)CCN(CC(=O)O)CCN(CC(=O)O)CC3)C(=O)N3CCN(CCCOc4ccc5nccc(C(=O)NCC(=O)N6CC(F)(F)C[C@H]6C#N)c5c4)CC3)c(C)c2)ccc1N=Nc1ccc2c(S(=O)(=O)O)cc(S(=O)(=O)O)c(N)c2c1O [TEFAPI-07]
tumor uptake and retention [1]: significantly enhanced tumor uptake and retention

O=C([O-])CN1CCN(CC(=O)[O-])CCN(CC(=O)[O-])CCN(CC(=O)[O-])CC1.[177Lu+3] [[^177Lu]Lu-DOTA, reference compound]
tumor volume at D23 (A431-CCK2R (+) tumors): 3237.10 ± 846.25 mm^3 | clearance of radiotracer accumulation in the urinary bladder, time after injection ([2]; NanoSPECT/CT): ≤ 24 h

CCCC[C@H](NC(=O)[C@H](Cc1c[nH]c2ccccc12)NC(=O)CNC(=O)[C@H](Cc1ccc(O)cc1)NC(=O)[C@H](C)NC(=O)[C@@H](CCC(=O)O)NC(=O)[C@@H](CCC(=O)O)NC(=O)[C@@H](CCC(=O)O)NC(=O)[C@@H](CCC(=O)O)NC(=O)[C@@H](CCC(=O)O)NC(=O)[C@@H](CCC(=O)O)NC(=O)CCCCCNC(=O)[C@H](CCCCNC(=O)CCCc1ccc(C)cc1)NC(=O)CN1CCN(CC(=O)O)CCN(CC(=O)O)CCN(CC(=O)O)CC1)C(=O)N[C@@H](CC(=O)O)C(=O)N[C@@H](Cc1ccccc1)C(N)=O [[^177Lu]Lu-DOTA-INER-PP-F11N-2, metal not drawn] ({DOTA}-K(Butanoyl(4-(4-MePh)))[Ahx][dE][dE][dE][dE][dE][dE]AYGW[Nle]DF-NH2)
tumor volume at D23 (A431-CCK2R (+) tumors): 1162.60 ± 275.92 mm^3 | metabolic stability [3, 6]: more than 95% | metabolic stability [3, 7]: > 99% | tissue uptake at 72 h [4, 8]: 7.4 ± 1.5 %ID/g | tissue uptake at 72 h [4, 9]: 0.88 ± 0.25 %ID/g | histopathological changes in the kidneys [5]: no significant histopathological changes | histopathological changes in the liver and heart [5]: no significant histopathological changes | internalization activity (A431-CCK2R (−) cells; 1 h): 0.25 ± 0.04 %IA/106 cells | surface binding activity (A431-CCK2R (−) cells; 1 h): 0.59 ± 0.01 %IA/106 cells | internalization activity (A431-CCK2R (−) cells; 4 h): 0.15 ± 0.18 %IA/106 cells | radioactivity within the kidneys on NanoSPECT/CT ([2]; compared with Lu-177-labeled PP-F11N over the same period): significantly lower | radiotracer accumulation in the tumor region on NanoSPECT/CT [2]: imaging of the tumor was limited | internalization activity (A431-CCK2R (+) cells; 1 h): 41.58 ± 3.46% | surface binding activity (A431-CCK2R (+) cells; 1 h): 5.51 ± 0.45% | internalization activity (A431-CCK2R (+) cells; 4 h): 81.26 ± 7.27% | surface binding activity (A431-CCK2R (+) cells; 4 h): 8.11 ± 2.65% | enhancement of internalization activity compared with PP-F11N (A431-CCK2R (+) cells; A431 CCK2R (+) cells, compared with conventional [^177Lu]Lu-DOTA-PP-F11N): 13.7%

CCCC[C@H](NC(=O)[C@H](Cc1c[nH]c2ccccc12)NC(=O)CNC(=O)[C@H](Cc1ccc(O)cc1)NC(=O)[C@H](C)NC(=O)[C@@H](CCC(=O)O)NC(=O)[C@@H](CCC(=O)O)NC(=O)[C@@H](CCC(=O)O)NC(=O)[C@@H](CCC(=O)O)NC(=O)[C@@H](CCC(=O)O)NC(=O)[C@@H](CCC(=O)O)NC(=O)CN1CCN(CC(=O)O)CCN(CC(=O)O)CCN(CC(=O)O)CC1)C(=O)N[C@@H](CC(=O)O)C(=O)N[C@@H](Cc1ccccc1)C(N)=O [[^177Lu]Lu-DOTA-PP-F11N, metal not drawn, reference compound]
tumor volume at D23 (A431-CCK2R (+) tumors): 1884.72 ± 333.13 mm^3 | metabolic stability [3, 6]: more than 95% | metabolic stability [3, 7]: below 60% | tissue uptake at 72 h [4, 8]: 14.2 ± 5.9 %ID/g | tissue uptake at 72 h [4, 9]: 0.33 ± 0.02 %ID/g | histopathological changes in the kidneys [5]: renal tubular necrosis (arrow 1), moderate renal tubular casts (arrow 2), slight renal tubular degeneration (arrow 3), and neutrophil infiltration (arrow 4); also recorded: moderate/severe renal tubular necrosis (arrow 1), moderate renal tubular casts (arrow 2), slight renal tubular degeneration (arrow 3), and slight infiltration of neutrophils (arrow 4) | histopathological changes in the liver and heart [5]: no significant histopathological changes | histopathological changes in the kidneys ([5]; listed as PP-F11N): renal tubular necrosis and inflammation | internalization activity (A431-CCK2R (−) cells; 1 h): 1.26 ± 0.06 %IA/106 cells | surface binding activity (A431-CCK2R (−) cells; 1 h): 3.42 ± 0.21 %IA/106 cells | internalization activity (A431-CCK2R (−) cells; 4 h): 1.29 ± 0.01 %IA/106 cells | surface binding activity (A431-CCK2R (−) cells; 4 h): 3.24 ± 0.15 %IA/106 cells | washout of radiotracer accumulation in both kidneys, time after injection ([2]; NanoSPECT/CT, accumulation from one hour): more than 48 h | radiotracer accumulation in the tumor region on NanoSPECT/CT [2]: relatively low | internalization activity (A431-CCK2R (+) cells; 1 h): 37.37 ± 3.04% | surface binding activity (A431-CCK2R (+) cells; 1 h): 6.60 ± 0.17% | internalization activity (A431-CCK2R (+) cells; 4 h): 71.44 ± 3.52% | surface binding activity (A431-CCK2R (+) cells; 4 h): 11.51 ± 3.16%

DOTA-(Glu)6-Ala-Tyr-Gly-Trp-Nle-Asp-Phe-NH2 [DOTA-PP-F11N, reference compound]
metabolic stability ([3]; In-111-labeled, 37 °C FBS (Figure 2B)): less metabolic stability | metabolic stability ([3]; Lu-177-labeled, 37 °C FBS, 4 h): 94.6 ± 0.1% | metabolic stability [3, 7]: 56.4 ± 0.1% | metabolic stability [3, 10]: more than 90%

DOTA-Lys(-4-TBA)-6-AMBA-(Glu)6-Ala-Tyr-Gly-Trp-Nle-Asp-Phe-NH2 [DOTA-INER-PP-F11N-1]
metabolic stability [3, 7]: 99% | metabolic stability [3, 10]: more than 90%

DOTA-Lys(-4-TBA)-AHA-(Glu)6-Ala-Tyr-Gly-Trp-Nle-Asp-Phe-NH2 [DOTA-INER-PP-F11N-2]
metabolic stability [3, 10]: more than 90%
